This note sets out measurements from paper PMC4613530, “Structure-based design and functional studies of novel noroviral 3C protease chimaeras offer insights into substrate specificity” (Biochemical Journal, 2014).

This series deals with the molecule itself. In words: non-reducing PAGE; purified NS6 proteases analysed by non-reducing PAGE; major band at approximately 18 kDa, minor band at approximately 36 kDa taken as the dimer.

B1: wild-type Southampton virus NS6 protease (enzyme)
chain: APPTLWSRVTKFGSGWGFWVSPTVFITTTHVIPTSAKEFFGEPLTSIAIHRAGEFTLFRFSKKIRPDLTGMILEEGCPEGTVCSVLIKRDSGELLPLAVRMGAIASMRIQGRLVHGQSGMLLTGANAKGMDLGTIPGDCGAPYVYKRANDWVVCGVHAAATKSGNTVVCAVQASEGETTLE
notes: NS6 protease (3C-like protease), cut product of the ORF1 polyprotein of Southampton virus (human norovirus); also called wtSV NS6; SV NS6
As to B1, the binding result was “binds”.

B2: wild-type murine norovirus NS6 protease (enzyme)
chain: APVSIWSRVVQFGTGWGFWVSGHVFITAKHVAPPKGTEIFGRKPGDFTVTSSGDFLKYYFTSAVRPDIPAMVLENGCQEGVVASVLVKRASGEMLALAVRMGSQAAIKIGSAVVHGQTGMLLTGSNAKAQDLGTIPGDCGCPYVYKKGNTWVVIGVHVAATRSGNTVIAATHGEPTLEALEFQ
notes: NS6 protease (3C-like protease), cut product of the ORF1 polyprotein of murine norovirus 1; expressed flanked by 41 residues of NS5 and 41 residues of NS7 and released by self-cleavage as the 19 kDa mature NS6; its strain may differ at a few residues from the UniProt entry; The tags sit upstream of the NS5 stretch and leave with it on self-excision; also called wtMNV NS6; MNV NS6; not shown: His …
Take B2: the binding result is “binds”.
